From paper PMC13233326, “Myosin forces remodel F-actin for mechanosensitive protein recognition” (Nature, 2026)

Target: the molecule itself
Experiment: cryo-EM structure; dual motor condition: GFP-tagged myosin V and myosin VI anchored to a holey carbon grid by an anti-GFP antibody, F-actin applied, then MB-ATP (20 mM MOPS pH 7.4, 5 mM MgCl2, 0.1 mM EGTA, 1 mM DTT, 1 mM ATP, 0.01% NP-40) with α-catenin ABD for 30 s before plunge freezing; 0.6 µM F-actin and 1 µM α-catenin ABD (sub-saturating); consensus map 10.4 Å, 3DVA-sorted map 12.3 Å

B1: C-terminal actin-binding domain (ABD) of human α-catenin (amino acids 664–906) (domain or fragment, UniProt P35221 664-906, looked up)
chain: IAGQSARAIMAQLPQEQKAKIAEQVASFQEEKSKLDAEVSKWDDSGNDIIVLAKQMCMIMMEMTDFTRGKGPLKNTSDVISAAKKIAEAGSRMDKLGRTIADHCPDSACKQDLLAYLQRIALYCHQLNICSKVKAEVQNLGGELVVSGVDSAMSLIQAAKNLMNAVVQTVKASYVASTKYQKSQGMASLNLPAVSWKMKAPEKKPLVKREKQDETQTKIKRASQKKHVNPVQALSEFKAMDSI
notes: the tags were removed with TEV protease; also called α-catenin ABD; αE-catenin ABD; source: E. coli Rosetta2(DE3), purified (Ni-NTA, TEV cleavage, anion exchange, SEC); not shown: His6, N-terminal, cleaved; strep tag, N-terminal, cleaved
- binding result: binds
